Assay [1] addresses FITC tagged AAV Po1 capsid monopartite NLS peptide (residues 143-165) (porcine adeno-associated virus, strain Po1). In words: fluorescence polarisation. (In general: Polarisation of emitted light reports the rotation of a fluorescent probe.)
In assay [2] the target is FITC tagged AAV Po1 capsid bipartite NLS peptide (residues 119-158) (porcine adeno-associated virus, strain Po1). In words: fluorescence polarisation.

From PMC9964314 come the findings set out here.

With “Human importin α1 lacking the IBB domain (hImpα1DIBB) (domain or fragment)”, the dissociation constant (Kd) in assay [1] worked out at 556 nM; in assay [2], 0.382 nM.

In the case of “Human importin α3 lacking the IBB domain (hImpα3DIBB) (domain or fragment)”, the Kd worked out at 3480 nM in assay [1] and 0.0455 nM in assay [2].

As to “Human importin α5 lacking the IBB domain (hImp5DIBB) (domain or fragment)”, the values for the Kd in assay [1] and in assay [2] were 144 nM and 0.14 nM, respectively.

In the case of “Human importin α7 lacking the IBB domain (hImpα7DIBB) (domain or fragment)”, the Kd in assay [1] stood at 294 nM; in assay [2], 0.29 nM.

One may read the Kd as the free concentration of one partner at which half of the binding sites on the other are occupied at equilibrium, for simple one-to-one binding.
